5 substances from patent US20190345534 can be followed below.

Sequence of Factor D (Sigma) (P00746 26-253): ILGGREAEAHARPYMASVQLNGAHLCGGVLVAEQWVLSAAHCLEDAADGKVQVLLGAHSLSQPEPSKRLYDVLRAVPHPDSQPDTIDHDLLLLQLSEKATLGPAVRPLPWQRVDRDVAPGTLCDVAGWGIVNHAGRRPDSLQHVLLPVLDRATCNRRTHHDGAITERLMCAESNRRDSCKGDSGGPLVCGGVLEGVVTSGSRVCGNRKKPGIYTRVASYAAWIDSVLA
Sequence of MASP2 (Biomatik) (O00187 16-686): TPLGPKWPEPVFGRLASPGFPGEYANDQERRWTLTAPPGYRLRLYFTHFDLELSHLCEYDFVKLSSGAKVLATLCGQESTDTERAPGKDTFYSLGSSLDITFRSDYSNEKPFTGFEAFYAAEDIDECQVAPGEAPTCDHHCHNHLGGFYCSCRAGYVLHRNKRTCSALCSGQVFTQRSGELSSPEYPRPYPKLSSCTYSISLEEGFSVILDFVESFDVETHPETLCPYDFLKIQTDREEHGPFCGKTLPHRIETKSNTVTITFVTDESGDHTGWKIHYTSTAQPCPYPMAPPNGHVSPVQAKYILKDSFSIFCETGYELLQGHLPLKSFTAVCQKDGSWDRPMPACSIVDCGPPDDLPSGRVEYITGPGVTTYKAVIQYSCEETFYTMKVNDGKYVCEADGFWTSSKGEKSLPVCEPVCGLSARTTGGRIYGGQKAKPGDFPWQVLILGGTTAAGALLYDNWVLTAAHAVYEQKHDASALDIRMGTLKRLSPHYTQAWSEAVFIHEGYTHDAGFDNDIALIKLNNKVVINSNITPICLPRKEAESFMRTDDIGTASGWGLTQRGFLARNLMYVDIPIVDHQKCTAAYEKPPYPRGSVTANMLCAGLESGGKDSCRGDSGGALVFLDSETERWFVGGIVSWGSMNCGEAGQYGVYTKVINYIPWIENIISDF
Sequence of Factor I (Sigma) (P05156 19-583): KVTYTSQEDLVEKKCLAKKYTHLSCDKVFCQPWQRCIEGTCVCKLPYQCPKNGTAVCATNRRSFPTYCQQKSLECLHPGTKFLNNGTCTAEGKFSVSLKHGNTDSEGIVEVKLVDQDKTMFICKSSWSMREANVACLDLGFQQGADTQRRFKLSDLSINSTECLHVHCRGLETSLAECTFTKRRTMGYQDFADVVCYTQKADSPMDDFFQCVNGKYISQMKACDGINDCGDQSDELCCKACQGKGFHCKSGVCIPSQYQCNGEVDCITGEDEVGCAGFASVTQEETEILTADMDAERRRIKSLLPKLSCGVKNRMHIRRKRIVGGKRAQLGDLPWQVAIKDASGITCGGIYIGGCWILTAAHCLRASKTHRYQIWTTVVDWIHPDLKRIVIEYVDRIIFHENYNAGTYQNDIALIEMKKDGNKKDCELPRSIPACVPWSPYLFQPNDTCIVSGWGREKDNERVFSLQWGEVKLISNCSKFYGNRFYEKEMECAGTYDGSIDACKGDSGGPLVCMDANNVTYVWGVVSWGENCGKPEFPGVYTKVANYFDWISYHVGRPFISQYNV

The data set deals with GzmB peptide substrate AIEFDSGc on PEG-coated iron oxide nanoparticles (GzmB-sensing synthetic biomarker).
For the substance Factor D (Sigma), the “fluorescent intensity (in vitro protease cleavage assay)” value was “Increases in fluorescent intensity were observed only in samples containing recombinant GzmB”.
The value for Factor I (Sigma) was “Increases in fluorescent intensity were observed only in samples containing recombinant GzmB”; that for MASP2 (Biomatik) was “Increases in fluorescent intensity were observed only in samples containing recombinant GzmB”; that for human thrombin (HaemTech) was “Increases in fluorescent intensity were observed only in samples containing recombinant GzmB”.
Regarding mouse thrombin (HaemTech), the “fluorescent intensity (in vitro protease cleavage assay)” value was “Increases in fluorescent intensity were observed only in samples containing recombinant GzmB”.
